Source: article PMC3466378 (Journal of immunology (Baltimore, Md. : 1950), 2012)
Ends that are not written are not given here.

Key:
[1] = molecular target: Soluble recombinant HLA-DR1 (HLA DRB1*0101) (human); assay: ELISA
HLA-DR1 = HLA-DR1 (Homo sapiens, UniProt P01903+P01911, A100R/D57E/F55L/F60I/F76Y/I96L/L162R/M171V/P40L/Q125E/R42F/V115G/Y59C); assay: biochemical; type: binding
[2] = molecular target: Soluble recombinant HLA-DR1 (HLA DRB1*0101) (human); assay: fluorescence polarisation

Compound	t1/2in [1] [days]	IC50 (HLA-DR1) [nM]	IC50 [2] [nM]	t1/2DM [1] [h]
I4L (71–85) (peptide)	11.6	–	–	–
CC[C@H](C)[C@H](NC(=O)[C@@H]1CCCN1C(=O)[C@H](CO)NC(=O)CNC(=O)[C@H](CC(=O)O)NC(=O)[C@H](CC(C)C)NC(=O)[C@@H](NC(=O)[C@H](CCCCN)NC(=O)[C@H](Cc1ccccc1)NC(=O)CNC(=O)[C@H](CC(C)C)NC(=O)[C@@H](N)CO)C(C)C)C(=O)N[C@@H](CO)C(=O)N[C@@H](CC(C)C)C(=O)N[C@@H](CCCNC(=N)N)C(=O)O [I8R (243–257)]	–	17	–	–
GRYLVLKAVKVSD [F17R(19–31)]	–	37	–	–
A48Rs (41–55) (peptide)	5.67	–	44	115
CC[C@H](C)[C@H](NC(=O)[C@H](C)NC(=O)[C@H](CC(C)C)NC(=O)[C@H](CO)NC(=O)[C@H](CC(N)=O)NC(=O)[C@H](CC(C)C)NC(=O)[C@H](Cc1ccccc1)NC(=O)[C@H](CCCNC(=N)N)NC(=O)[C@H](CCSC)NC(=O)[C@H](CC(=O)O)NC(=O)[C@@H](N)Cc1ccccc1)C(=O)N[C@@H](Cc1c[nH]cn1)C(=O)N[C@@H](CCC(=O)O)C(=O)O [I7L (193–205)]	–	150	–	–
F1L(202–214) (peptide)	17.2	–	–	117
CC[C@H](C)[C@H](NC(=O)CNC(=O)[C@H](CO)NC(=O)[C@H](CCC(N)=O)NC(=O)[C@H](CC(N)=O)NC(=O)[C@@H](NC(=O)[C@H](Cc1ccccc1)NC(=O)[C@@H]1CCCN1C(=O)[C@@H](N)CCC(=O)O)C(C)C)C(=O)N[C@@H](CCC(=O)O)C(=O)N[C@H](C(=O)N[C@@H](CC(C)C)C(=O)N[C@@H](CC(C)C)C(=O)O)[C@@H](C)CC [D11L (386–398)]	–	106	–	–
CC[C@H](C)[C@H](NC(=O)[C@H](CO)NC(=O)[C@H](CC(N)=O)NC(=O)[C@H](Cc1ccccc1)NC(=O)[C@@H](NC(=O)[C@@H](N)CC(C)C)C(C)C)C(=O)N[C@@H](CO)C(=O)N[C@@H](C)C(=O)N[C@@H](CCCNC(=N)N)C(=O)N[C@@H](C)C(=O)N[C@@H](CC(C)C)C(=O)N[C@@H](CCCCN)C(=O)N[C@@H](C)C(=O)N[C@@H](Cc1ccc(O)cc1)C(=O)N[C@@H](Cc1ccccc1)C(=O)O [I1L (8–22)]	–	15	–	–
CC[C@H](C)[C@H](NC(=O)[C@H](Cc1ccccc1)NC(=O)[C@H](CC(C)C)NC(=O)[C@H](CC(C)C)NC(=O)[C@H](CO)NC(=O)[C@@H](NC(=O)[C@H](C)N)C(C)C)C(=O)N[C@@H](CCC(N)=O)C(=O)NCC(=O)N[C@@H](Cc1ccc(O)cc1)C(=O)N[C@@H](CO)C(=O)N[C@H](C(=O)N[C@@H](Cc1ccc(O)cc1)C(=O)N[C@@H](CCC(=O)O)C(=O)N[C@@H](CC(N)=O)C(=O)O)[C@@H](C)CC [A28Ls (15–29)]	–	212	–	–
I1L (8–22) (peptide)	6.46	–	15	–
HPDYAILAARIAVSN [I4L (71–85)]	–	62	–	–
CC[C@H](C)[C@H](NC(=O)[C@H](CCCNC(=N)N)NC(=O)[C@H](CC(=O)O)NC(=O)[C@@H](NC(=O)[C@H](CCCCN)NC(=O)[C@@H](NC(=O)[C@H](CO)NC(=O)[C@H](CCC(=O)O)NC(=O)[C@@H](NC(=O)[C@H](Cc1ccc(O)cc1)NC(=O)[C@H](CCSC)NC(=O)[C@H](Cc1ccccc1)NC(=O)[C@H](CO)NC(=O)[C@H](Cc1ccccc1)NC(=O)[C@@H](N)CCCCN)[C@@H](C)CC)[C@@H](C)CC)C(C)C)C(=O)O [A20R (214–228)]	–	192	–	–
TTQSMNIMESIPANT [A48Rs (41–55)]	–	44	–	–
L1R (191–205) (peptide)	–	–	7360	–
A28Ls (15–29) (peptide)	8.88	–	212	–
D5R (315–329) (peptide)	11.5	–	–	–
D6R (156–170) (peptide)	41.5	–	4	219
